Experimental data from paper PMC4812251.

Substrate: CC(=O)O
Test: purified protein
Conditions: ATP 10 mM, CoA 0.1 mM, MgCl2 5 mM, acetate salt 2.5-80 mM

B1: DtACS (Dunaliella tertiolecta) (protein)
chain: MKCSALPAGSRPQALATHTSMQAPLLLRSLAPSVPKLAQPAGTPLVHSSLPCYRKSRSCSHLASASSTAPGSTTMKPQPLLTNFIQSKEEYDALYARSIADPASFWGDVAEQFHWEKKWDPDHHSFNFDVTKGPINVEWFKGGFTNICYNALDRHVMTGHGNQHCMLFEGNEPGSDGAMTYTQVLDEVCRLANWMKAQGIGKGDCVAIYMPMVMQLPIAMLACARIGAVHSVVFGGFSADALAGRMEDCKARVLLTCNGGMRATKKIELKQIADQAIEMCASRGHTVDSVLVFANHKDGVAGAEAAGTPFTQGRDAWWQPTLAEFPALCDVAWVPAEHPLFLLYTSGSTGKPKGVLHTTGGYMVYAATTTKHAFQLQPGDVFWCTADCGWITGHSYLAYGPLLNRAVSVVFEGVPTHPTPARSWEIIDKYQVKQFYTAPTALRSLMRSGDEWLSSTSRQSLQVLGTVGEPINPEAWHWFHDLVGNGRCPVVDTWWQTETGGHMILPLPRAWPAKPGSATLPFFGVEPVILDDKGVELQGECEGLLMMRRPWPSTLRSVYGDHKRYEENYFGPYPGYYFTGDGARRDKDGYYWITGRVDDVINVSGHRIGTAEVESAIAAHHDCAEAAVAGYEHPVKGQGIYAFVVLKEGVVPNDQLKKEMWTNVRTTIGAFAAPDVIHWAPGLPKTRSGKIMRRVLRKIAGGQENELGDTSTLADPSIVRQLIETRN
Km (Tris-Cl pH 8.0, 37 °C (general assay)): 3.59 mM | Km (Tris-Cl pH 8.0, 37 °C (general assay; mix lists 10 mM potassium acetate as substrate)): 4.66 mM
